Measured values as given in patent US20180236024A1 (STC UNM, published 2018).

T1: radiolabeled Myc-TRIM20 (human, UniProt O15553 1-781, [35S] L-methionine label)
T1 construct: In vitro translated for GST pull-down; the peptide array of TRIM20 peptides is also written under this molecule; not shown: Myc tag
T1 sequence: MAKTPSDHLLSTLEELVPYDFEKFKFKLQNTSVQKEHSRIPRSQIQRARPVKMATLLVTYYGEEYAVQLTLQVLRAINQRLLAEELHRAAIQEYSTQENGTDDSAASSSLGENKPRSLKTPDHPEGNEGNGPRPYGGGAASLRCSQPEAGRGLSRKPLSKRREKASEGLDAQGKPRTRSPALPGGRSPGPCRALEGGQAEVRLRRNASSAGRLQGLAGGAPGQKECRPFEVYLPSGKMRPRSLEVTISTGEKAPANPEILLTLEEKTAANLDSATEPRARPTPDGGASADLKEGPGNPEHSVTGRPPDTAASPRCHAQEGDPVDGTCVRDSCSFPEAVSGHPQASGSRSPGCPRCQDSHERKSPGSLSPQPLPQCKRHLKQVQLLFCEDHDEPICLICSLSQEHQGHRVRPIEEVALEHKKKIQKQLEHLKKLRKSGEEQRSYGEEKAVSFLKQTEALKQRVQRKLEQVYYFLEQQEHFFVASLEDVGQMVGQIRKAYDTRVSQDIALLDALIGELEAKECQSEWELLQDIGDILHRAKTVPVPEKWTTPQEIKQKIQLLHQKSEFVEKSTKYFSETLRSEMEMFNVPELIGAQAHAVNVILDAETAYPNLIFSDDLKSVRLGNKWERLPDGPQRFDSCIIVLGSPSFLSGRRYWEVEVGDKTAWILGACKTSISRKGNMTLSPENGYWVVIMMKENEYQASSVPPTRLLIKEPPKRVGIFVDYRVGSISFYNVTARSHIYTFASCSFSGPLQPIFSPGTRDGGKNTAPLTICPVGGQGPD

B1: GST-GABARAP (other)
chain: MKFVYKEEHPFEKRRSEGEKIRKKYPDRVPVIVEKAPKARIGDLDKKKYLVPSDLTVGQFYFLIRKRIHLRAEDALFFFVNNVIPPTSATMGQLYQEHHEEDFFLYIAYSDESVYGL
notes: GST fusion made in E. coli; not shown: GST tag
B2: GFP-TRIM20 (full-length human TRIM20) (other)
chain: MAKTPSDHLLSTLEELVPYDFEKFKFKLQNTSVQKEHSRIPRSQIQRARPVKMATLLVTYYGEEYAVQLTLQVLRAINQRLLAEELHRAAIQEYSTQENGTDDSAASSSLGENKPRSLKTPDHPEGNEGNGPRPYGGGAASLRCSQPEAGRGLSRKPLSKRREKASEGLDAQGKPRTRSPALPGGRSPGPCRALEGGQAEVRLRRNASSAGRLQGLAGGAPGQKECRPFEVYLPSGKMRPRSLEVTISTGEKAPANPEILLTLEEKTAANLDSATEPRARPTPDGGASADLKEGPGNPEHSVTGRPPDTAASPRCHAQEGDPVDGTCVRDSCSFPEAVSGHPQASGSRSPGCPRCQDSHERKSPGSLSPQPLPQCKRHLKQVQLLFCEDHDEPICLICSLSQEHQGHRVRPIEEVALEHKKKIQKQLEHLKKLRKSGEEQRSYGEEKAVSFLKQTEALKQRVQRKLEQVYYFLEQQEHFFVASLEDVGQMVGQIRKAYDTRVSQDIALLDALIGELEAKECQSEWELLQDIGDILHRAKTVPVPEKWTTPQEIKQKIQLLHQKSEFVEKSTKYFSETLRSEMEMFNVPELIGAQAHAVNVILDAETAYPNLIFSDDLKSVRLGNKWERLPDGPQRFDSCIIVLGSPSFLSGRRYWEVEVGDKTAWILGACKTSISRKGNMTLSPENGYWVVIMMKENEYQASSVPPTRLLIKEPPKRVGIFVDYRVGSISFYNVTARSHIYTFASCSFSGPLQPIFSPGTRDGGKNTAPLTICPVGGQGPD
notes: also called T20; wild type TRIM20; not shown: GFP tag

Assays:
radiolabeled Myc-TRIM20 = molecular target: T1, radiolabeled Myc-TRIM20; experiment: GST pull-down of radiolabeled Myc-TRIM20
NLRP3 = molecular target: T2, NLRP3 (UniProt Q96P20 1-1036); experiment: co-IP of GFP-TRIM20 variants with NLRP3, HEK293 cells
T2 construct: also called Flag-NLRP3; endogenous NLRP3
T2 sequence (Q96P20 whole entry): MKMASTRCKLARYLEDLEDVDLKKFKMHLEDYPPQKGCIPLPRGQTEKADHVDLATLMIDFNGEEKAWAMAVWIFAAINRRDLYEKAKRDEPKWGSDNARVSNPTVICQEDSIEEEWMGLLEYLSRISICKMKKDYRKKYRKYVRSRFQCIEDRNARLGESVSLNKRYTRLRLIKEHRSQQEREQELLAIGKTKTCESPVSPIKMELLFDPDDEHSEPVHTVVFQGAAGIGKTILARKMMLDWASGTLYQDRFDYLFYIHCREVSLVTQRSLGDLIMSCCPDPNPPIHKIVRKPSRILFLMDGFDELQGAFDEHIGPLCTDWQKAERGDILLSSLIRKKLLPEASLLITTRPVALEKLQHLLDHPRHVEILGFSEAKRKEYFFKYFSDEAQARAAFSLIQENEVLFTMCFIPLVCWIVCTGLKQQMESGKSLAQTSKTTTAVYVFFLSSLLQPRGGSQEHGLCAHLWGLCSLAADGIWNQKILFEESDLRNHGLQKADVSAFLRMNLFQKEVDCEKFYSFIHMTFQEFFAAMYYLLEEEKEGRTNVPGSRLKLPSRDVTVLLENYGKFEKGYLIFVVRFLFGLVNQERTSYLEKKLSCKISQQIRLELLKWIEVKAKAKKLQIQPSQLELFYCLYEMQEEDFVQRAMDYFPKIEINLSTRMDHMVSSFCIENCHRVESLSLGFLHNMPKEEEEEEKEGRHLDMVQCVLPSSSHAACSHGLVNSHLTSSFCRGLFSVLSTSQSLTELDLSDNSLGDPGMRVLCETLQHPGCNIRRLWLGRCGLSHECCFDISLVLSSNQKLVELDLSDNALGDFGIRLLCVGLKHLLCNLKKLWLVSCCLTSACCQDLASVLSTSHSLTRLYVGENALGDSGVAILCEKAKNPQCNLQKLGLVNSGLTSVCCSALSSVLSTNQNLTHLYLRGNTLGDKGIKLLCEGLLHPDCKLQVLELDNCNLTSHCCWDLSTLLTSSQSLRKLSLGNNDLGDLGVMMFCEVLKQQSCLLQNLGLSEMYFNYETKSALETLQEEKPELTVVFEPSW

| Binder | binding result (radiolabeled Myc-TRIM20) | binding result (NLRP3) |
| --- | --- | --- |
| B1 | binds | – |
| B2 | – | binds |
